Test results as given in the Immune Epitope Database (IEDB).
pKd: −log10 of the molar value.

Assays:
[1] = target: HLA-B*15:01; experiment: IEDB peptide-MHC binding, purified MHC/direct/fluorescence; filed as Kd, often an IC50 or EC50 that approximates it; ≥ and ≤ were set here for values at or beyond the usual limits of such assays
[2] = target: HLA-B*27:05; experiment: as above
[3] = target: HLA-B*07:02; experiment: as above
[4] = target: HLA-A*02:01; experiment: as above
[5] = target: HLA-B*46:01; experiment: as above
[6] = target: HLA-A*01:01; experiment: as above
[7] = target: HLA-B*48:01; experiment: as above
[8] = target: HLA-A*31:01; experiment: as above
[9] = target: HLA-A*69:01; experiment: as above
[10] = target: HLA-A*11:01; experiment: as above
[11] = target: HLA-B*08:03; experiment: as above
[12] = target: HLA-B*40:01; experiment: as above
[13] = target: HLA-A*03:01; experiment: as above
[14] = target: HLA-B*57:01; experiment: as above
[15] = target: HLA-A*68:02; experiment: as above
[16] = target: HLA-B*08:01; experiment: as above
[17] = target: HLA-B*18:01; experiment: as above
[18] = target: HLA-A*26:02; experiment: as above
[19] = target: HLA-A*26:03; experiment: as above
[20] = target: HLA-B*58:01; experiment: as above
[21] = target: HLA-B*15:17; experiment: IEDB peptide-MHC binding, purified MHC/competitive/fluorescence; filed as Kd, often an IC50 or EC50 that approximates it; ≥ and ≤ were set here for values at or beyond the usual limits of such assays
[22] = target: HLA-A*26:01; experiment: IEDB peptide-MHC binding, purified MHC/direct/fluorescence; filed as Kd, often an IC50 or EC50 that approximates it; ≥ and ≤ were set here for values at or beyond the usual limits of such assays
[23] = target: HLA-B*15:17; experiment: as above
[24] = target: HLA-B*51:01; experiment: IEDB peptide-MHC binding, purified MHC/competitive/fluorescence; filed as Kd, often an IC50 or EC50 that approximates it; ≥ and ≤ were set here for values at or beyond the usual limits of such assays; details: source organism: Influenza A virus H3N2
[25] = target: HLA-B*15:09; experiment: as above
[26] = target: HLA-A*23:01; experiment: IEDB peptide-MHC binding, purified MHC/direct/fluorescence; filed as Kd, often an IC50 or EC50 that approximates it; ≥ and ≤ were set here for values at or beyond the usual limits of such assays; details: source organism: Vibrio vulnificus YJ016
[27] = target: HLA-B*15:09; experiment: as above; details: source organism: Vibrio vulnificus CMCP6
[28] = target: HLA-A*24:03; experiment: as above; details: source organism: Vibrio vulnificus YJ016
[29] = target: HLA-A*02:06; experiment: IEDB peptide-MHC binding, purified MHC/competitive/fluorescence; filed as Kd, often an IC50 or EC50 that approximates it; ≥ and ≤ were set here for values at or beyond the usual limits of such assays
[30] = target: HLA-B*18:01; experiment: as above; details: source organism: Vibrio vulnificus YJ016
[31] = target: HLA-A*02:19; experiment: IEDB peptide-MHC binding, purified MHC/direct/fluorescence; filed as Kd, often an IC50 or EC50 that approximates it; ≥ and ≤ were set here for values at or beyond the usual limits of such assays; details: source organism: Salmonella enterica subsp. enterica serovar Typhimurium str. LT2
[32] = target: HLA-A*02:11; experiment: as above; details: source organism: Salmonella enterica subsp. enterica serovar Typhimurium str. LT2
[33] = target: HLA-A*26:02; experiment: IEDB peptide-MHC binding, purified MHC/competitive/fluorescence; filed as Kd, often an IC50 or EC50 that approximates it; ≥ and ≤ were set here for values at or beyond the usual limits of such assays
[34] = target: HLA-A*02:01; experiment: as above; details: source organism: Escherichia coli 536
[35] = target: HLA-B*39:01; experiment: as above; details: source organism: Escherichia coli 536
[36] = target: HLA-A*68:02; experiment: as above; details: source organism: Escherichia coli 536
[37] = source organism: Camelpox virus M-96
[38] = source organism: Influenza A virus (A/SW/MN/12883/00(H1N2))
[39] = source organism: Influenza A virus(A/swine/Shandong/fNY/2003(H9N2))
[40] = source organism: Vibrio vulnificus YJ016
[41] = source organism: Vibrio vulnificus CMCP6
[42] = source organism: Vibrio cholerae
[43] = source organism: Salmonella enterica
[44] = source organism: Salmonella enterica subsp. enterica serovar Enteritidis
[45] = source organism: Escherichia coli O157:H7
[46] = source organism: Escherichia coli 536

## ATNDGLIKK
[1]; [37]
  pKd: ≤ 4.70
[2]; [37]
  pKd: ≤ 4.70
[3]; [37]
  pKd: ≤ 4.70
[4]; [37]
  pKd: ≤ 4.70
[5]; [37]
  pKd: ≤ 4.70
[6]; [37]
  pKd: ≤ 4.70
[7]; [37]
  pKd: ≤ 4.70
[8]; [37]
  pKd: 6.92
[9]; [37]
  pKd: ≤ 4.70
[10]; [37]
  pKd: 8.00
[11]; source organism: Variola virus
  pKd: ≤ 4.70
[12]; [37]
  pKd: ≤ 4.70
[13]; [37]
  pKd: 5.84
[14]; [37]
  pKd: ≤ 4.70
[15]; [37]
  pKd: ≤ 4.70
[16]; source organism: Variola virus
  pKd: ≤ 4.70
[17]; [37]
  pKd: ≤ 4.70
[18]; source organism: Variola virus
  pKd: ≤ 4.70
[19]; source organism: Variola virus
  pKd: ≤ 4.70
[20]; [37]
  pKd: 5.05
[21]; source organism: Vaccinia virus WR
  pKd: ≤ 4.70

## FPNEVGARI
[1]; [38]
  pKd: ≤ 4.70
[2]; [38]
  pKd: ≤ 4.70
[3]; [38]
  pKd: 7.18
[4]; [38]
  pKd: ≤ 4.70
[5]; [38]
  pKd: ≤ 4.70
[6]; [38]
  pKd: ≤ 4.70
[7]; [38]
  pKd: ≤ 4.70
[22]; [39]
  pKd: ≤ 4.70
[8]; [38]
  pKd: ≤ 4.70
[9]; [38]
  pKd: 8.42
[10]; [38]
  pKd: ≤ 4.70
[12]; [38]
  pKd: ≤ 4.70
[13]; [38]
  pKd: ≤ 4.70
[14]; [38]
  pKd: ≤ 4.70
[23]; [38]
  pKd: ≤ 4.70
[16]; [39]
  pKd: 5.52
[17]; [38]
  pKd: ≤ 4.70
[20]; [38]
  pKd: ≤ 4.70
[24]
  pKd: 6.45
[25]; source organism: Influenza A virus H3N2
  pKd: 5.95

## GWPDNYCEW
[1]; [40]
  pKd: ≤ 4.70
[3]; [40]
  pKd: ≤ 4.70
[4]; [40]
  pKd: ≤ 4.70
[26]
  pKd: 6.65
[6]; [40]
  pKd: ≤ 4.70
[22]; [41]
  pKd: ≤ 4.70
[8]; [40]
  pKd: ≤ 4.70
[9]; [40]
  pKd: ≤ 4.70
[10]; [40]
  pKd: ≤ 4.70
[11]; [41]
  pKd: ≤ 4.70
[14]; [40]
  pKd: ≤ 4.70
[23]; [40]
  pKd: ≤ 4.70
[27]
  pKd: ≤ 4.70
[15]; [40]
  pKd: ≤ 4.70
[16]; [41]
  pKd: ≤ 4.70
[28]
  pKd: 8.17
[20]; [40]
  pKd: ≤ 4.70
[29]; [40]
  pKd: 5.66
[30]
  pKd: 5.64

## KGHLPLLDK
[1]; [42]
  pKd: ≤ 4.70
[2]; [42]
  pKd: ≤ 4.70
[3]; [42]
  pKd: ≤ 4.70
[4]; [42]
  pKd: ≤ 4.70
[5]; [42]
  pKd: ≤ 4.70
[6]; [42]
  pKd: ≤ 4.70
[7]; [42]
  pKd: ≤ 4.70
[8]; [42]
  pKd: 5.40
[9]; [42]
  pKd: ≤ 4.70
[11]; [41]
  pKd: ≤ 4.70
[12]; [42]
  pKd: ≤ 4.70
[13]; [42]
  pKd: 7.26
[14]; [42]
  pKd: ≤ 4.70
[23]; [42]
  pKd: ≤ 4.70
[15]; [42]
  pKd: ≤ 4.70
[16]; [41]
  pKd: ≤ 4.70
[18]; [41]
  pKd: ≤ 4.70
[19]; [41]
  pKd: ≤ 4.70
[20]; [42]
  pKd: ≤ 4.70

## MGKTITDVK
[1]; [43]
  pKd: ≤ 4.70
[2]; [43]
  pKd: ≤ 4.70
[3]; [43]
  pKd: ≤ 4.70
[4]; [43]
  pKd: ≤ 4.70
[5]; [43]
  pKd: ≤ 4.70
[6]; [43]
  pKd: ≤ 4.70
[7]; [43]
  pKd: ≤ 4.70
[31]
  pKd: 5.22
[8]; [43]
  pKd: 5.80
[32]
  pKd: ≤ 4.70
[10]; [43]
  pKd: 6.38
[11]; source organism: Salmonella enterica subsp. enterica serovar Typhimurium str. LT2
  pKd: ≤ 4.70
[12]; [43]
  pKd: ≤ 4.70
[13]; [43]
  pKd: ≤ 4.70
[14]; [43]
  pKd: ≤ 4.70
[23]; [43]
  pKd: ≤ 4.70
[15]; [43]
  pKd: ≤ 4.70
[17]; [43]
  pKd: ≤ 4.70
[20]; [43]
  pKd: ≤ 4.70
[29]; [44]
  pKd: 6.54
[33]; [44]
  pKd: 5.56

## VMAASGAPF
[1]; [45]
  pKd: 7.72
[2]; [45]
  pKd: ≤ 4.70
[3]; [45]
  pKd: 6.83
[5]; [45]
  pKd: 5.87
[6]; [45]
  pKd: ≤ 4.70
[7]; [45]
  pKd: ≤ 4.70
[8]; [45]
  pKd: ≤ 4.70
[9]; [45]
  pKd: ≤ 4.70
[10]; [45]
  pKd: ≤ 4.70
[14]; [45]
  pKd: ≤ 4.70
[34]
  pKd: ≤ 4.70
[35]
  pKd: ≤ 4.70
[21]; [46]
  pKd: 6.67
[25]; [46]
  pKd: ≤ 4.70
[36]
  pKd: ≤ 4.70
[33]; [46]
  pKd: ≤ 4.70
